T1: human CDH6 on cells (human, UniProt P55285 54-790)
T1 sequence: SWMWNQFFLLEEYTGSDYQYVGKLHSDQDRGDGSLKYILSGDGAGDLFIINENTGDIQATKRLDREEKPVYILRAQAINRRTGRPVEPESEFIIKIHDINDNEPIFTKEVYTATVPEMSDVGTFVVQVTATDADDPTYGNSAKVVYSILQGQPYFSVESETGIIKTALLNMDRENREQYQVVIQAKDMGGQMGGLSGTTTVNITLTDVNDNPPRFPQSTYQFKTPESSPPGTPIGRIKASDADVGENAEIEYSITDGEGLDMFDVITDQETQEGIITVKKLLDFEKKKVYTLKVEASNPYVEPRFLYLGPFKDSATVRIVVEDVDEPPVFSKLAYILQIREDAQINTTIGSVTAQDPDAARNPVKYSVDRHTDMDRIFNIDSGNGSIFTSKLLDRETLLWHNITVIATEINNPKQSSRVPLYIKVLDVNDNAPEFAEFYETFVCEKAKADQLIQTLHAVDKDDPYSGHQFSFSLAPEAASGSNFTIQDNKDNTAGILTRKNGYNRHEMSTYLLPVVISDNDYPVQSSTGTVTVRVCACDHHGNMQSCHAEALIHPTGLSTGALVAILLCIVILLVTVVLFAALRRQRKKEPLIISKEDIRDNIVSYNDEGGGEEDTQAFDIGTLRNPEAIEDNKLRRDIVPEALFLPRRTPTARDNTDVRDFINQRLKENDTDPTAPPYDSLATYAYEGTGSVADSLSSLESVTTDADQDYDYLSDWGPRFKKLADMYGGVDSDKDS

B1: NOV0670-SMCC-DM1 (antibody, human IgG1, lambda, V domains shown)
VH: QVQLVQSGAEVKKPGSSVKVSCKASGGTFSSYAISWVRQAPGQGLEWMGGIIPIFGTANYAQKFQGRVTITADESTSTAYMELSSLRSEDTAVYYCARKFPGRGPFAYWGQGTLVTVSS
VL: DIVLTQPPSVSGAPGQRVTISCSGSSSNIGSQYVYWYQQLPGTAPKLLIYYNSERPSGMPDRFSGSKSGTSASLAITGLQAEDEADYYCQTWDASSQSFVFGGGTKLTVLG
modifications: SMCC-DM1 on primary amines, sites not stated
B2: NOV0713-SMCC-DM1 (antibody, human IgG1, lambda, V domains shown)
VH: QVQLQQSGPGLVKPSQTLSLTCAISGDSVSSNSAAWNWIRQSPSRGLEWLGRIYYRSKWYNDYAVSVKSRITINPDTSKNQFSLQLNSVTPEDTAVYYCARGLVGRYGQPYHFDVWGQGTLVTVSS
VL: DIELTQPPSVSVSPGQTASITCSGDNLRSYYVHWYQQKPGQAPVLVIYGNNKRPSGIPERFSGSNSGNTATLTISGTQAEDEADYYCGVYTLSSVVFGGGTKLTVLG
modifications: SMCC-DM1 on primary amines, sites not stated
B3: NOV0685-SMCC-DM1 (antibody, human IgG1, lambda, V domains shown)
VH: QVQLQQSGPGLVKPSQTLSLTCAISGDSVSGNSAAWNWIRQSPSRGLEWLGIIYYRSKWYNDYAVSVKSRITINPDTSKNQFSLQLNSVTPEDTAVYYCARSSYSGGFDYWGQGTLVTVSS
VL: DIVLTQPPSVSGAPGQRVTISCSGSSSNIGSYYVSWYQQLPGTAPKLLIYYNTKRPSGVPDRFSGSKSGTSASLAITGLQAEDEADYYCQSWDKLGKGYVFGGGTKLTVLG
modifications: SMCC-DM1 on primary amines, sites not stated
B4: NOV0672-SMCC-DM1 (antibody, human IgG1, lambda, V domains shown)
VH: QVQLLESGGGLVQPGGSLRLSCAASGFTFNTYGIHWVRQAPGKGLEWVSYIHYSGSSTYYADSVKGRFTISRDNSKNTLYLQMNSLRAEDTAVYYCARHAYGYMDFWGQGTLVTVSS
VL: DIALTQPASVSGSPGQSITISCTGTSSDVGAYNYVSWYQQHPGKAPKLMIYGVSKRPSGVSNRFSGSKSGNTASLTISGLQAEDEADYYCQSYDHLLHVVFGGGTKLTVLG
modifications: SMCC-DM1 on primary amines, sites not stated
B5: NOV0691-SMCC-DM1 (antibody, human IgG1, lambda, V domains shown)
VH: QVQLVESGGGLVKPGGSLRLSCAASGFTFSSYALNWVRQAPGKGLEWVGRIKSKTYGGSTDYAAPVKGRFTISRDDSKNTLYLQMNSLKTEDTAVYYCARDRGGYVGFDSWGQGTLVTVSS
VL: DIALTQPASVSGSPGQSITISCTGTSSDVGRYNFVSWYQQHPGKAPKLMIYRVSNRPSGVSNRFSGSKSGNTASLTISGLQAEDEADYYCQSWTTYSNVVFGGGTKLTVLG
modifications: SMCC-DM1 on primary amines, sites not stated
B6: NOV0709-SMCC-DM1 (antibody, human IgG1, lambda, V domains shown)
VH: QVQLLESGGGLVQPGGSLRLSCAASGFTFSTYYMHWVRQAPGKGLEWVSVISSDGSFTFYADSVKGRFTISRDNSKNTLYLQMNSLRAEDTAVYYCARHGYGAFDYWGQGTLVTVSS
VL: DIALTQPASVSGSPGQSITISCTGTSSDVGSYNYVSWYQQHPGKAPKLMIYYVSNRPSGVSNRFSGSKSGNTASLTISGLQAEDEADYYCASYTHQGSWVFGGGTKLTVLG
modifications: SMCC-DM1 on primary amines, sites not stated
B7: NOV0690-SMCC-DM1 (antibody, human IgG1, lambda, V domains shown)
VH: QVQLLESGGGLVQPGGSLRLSCAASGFTFSDHAIDWVRQAPGKGLEWVSVIAGDGSITYYADSVKGRFTISRDNSKNTLYLQMNSLRAEDTAVYYCARDTGVYREYMDVWGQGTLVTVSS
VL: DIELTQPPSVSVSPGQTASITCSGDAIGTKFAHWYQQKPGQAPVLVIYYDHERPSGIPERFSGSNSGNTATLTISGTQAEDEADYYCYSRASSNLVFGGGTKLTVLG
modifications: SMCC-DM1 on primary amines, sites not stated
B8: NOV0692-SMCC-DM1 (antibody, human IgG1, lambda, V domains shown)
VH: QVQLVESGGGLVKPGGSLRLSCAASGFTFSRYWMDWVRQAPGKGLEWVGRIKSKANGGITDYAAPVKGRFTISRDDSKNTLYLQMNSLKTEDTAVYYCARGMTFLGIWGQGTLVTVSS
VL: DIELTQPPSVSVSPGQTASITCSGDSIGSKYAQWYQQKPGQAPVLVIYYNSERPSGIPERFSGSNSGNTATLTISGTQAEDEADYYCQSWDGQSTIRVFGGGTKLTVLG
modifications: SMCC-DM1 on primary amines, sites not stated
B9: NOV0674-SMCC-DM1 (antibody, human IgG1, lambda, V domains shown)
VH: QVQLLESGGGLVQPGGSLRLSCAASGFTFSSYAMTWVRQAPGKGLEWVSGISGGGSNTYYADSVKGRFTISRDNSKNTLYLQMNSLRAEDTAVYYCARGGGQYFDYWGQGTLVTVSS
VL: DIVLTQPPSVSGAPGQRVTISCSGSSSNIGYNYVSWYQQLPGTAPKLLIYRDNQRPSGVPDRFSGSKSGTSASLAITGLQAEDEADYYCAAWTSGSIGWVFGGGTKLTVLG
modifications: SMCC-DM1 on primary amines, sites not stated
B10: NOV0682-SMCC-DM1 (antibody, human IgG1, kappa, V domains shown)
VH: QVQLVESGGGLVKPGGSLRLSCAASGFTFSSYAISWVRQAPGKGLEWVGFIKSNADGYTTNYAAPVKGRFTISRDDSKNTLYLQMNSLKTEDTAVYYCARIRYFRNWDYWGQGTLVTVSS
VL: DIQMTQSPSSLSASVGDRVTITCRASQTINSYLNWYQQKPGKAPKLLIYRASNLQSGVPSRFSGSGSGTDFTLTISSLQPEDFATYYCQQGDSSWTFGQGTKVEIKR
modifications: SMCC-DM1 on primary amines, sites not stated
B11: NOV0693-SMCC-DM1 (antibody, human IgG1, kappa, V domains shown)
VH: QVQLLESGGGLVQPGGSLRLSCAASGFTFSSYALHWVRQAPGKGLEWVSYIFYDSSSTYYADSVKGRFTISRDNSKNTLYLQMNSLRAEDTAVYYCARFLYSAYGVANWGQGTLVTVSS
VL: DIQMTQSPSSLSASVGDRVTITCRASQSISFYLAWYQQKPGKAPKLLIYGASTLQSGVPSRFSGSGSGTDFTLTISSLQPEDFATYYCHQYSYWLRTFGQGTKVEIKR
modifications: SMCC-DM1 on primary amines, sites not stated
B12: NOV0689-SMCC-DM1 (antibody, human IgG1, lambda, V domains shown)
VH: QVQLLESGGGLVQPGGSLRLSCAASGFTFSSFAMNWVRQAPGKGLEWVSVISSSGSNTNYADSVKGRFTISRDNSKNTLYLQMNSLRAEDTAVYYCARPSYFQAMDYWGQGTLVTVSS
VL: DIVLTQPPSVSGAPGQRVTISCSGSSSNIGSNFVSWYQQLPGTAPKLLIYDNSNRPSGVPDRFSGSKSGTSASLAITGLQAEDEADYYCSSYDSFDHSWVFGGGTKLTVLG
modifications: SMCC-DM1 on primary amines, sites not stated
B13: NOV0695-SMCC-DM1 (antibody, human IgG1, kappa, V domains shown)
VH: QVQLQQSGPGLVKPSQTLSLTCAISGDSVSSNSAAWNWIRQSPSRGLEWLGRIYYRSKWYNDYAVSVKSRITINPDTSKNQFSLQLNSVTPEDTAVYYCARERSYRDYFDYWGQGTLVTVSS
VL: DIQMTQSPSSLSASVGDRVTITCRASQGIFTYLNWYQQKPGKAPKLLISAASTLQSGVPSRFSGSGSGTDFTLTISSLQPEDFATYYCQQYYSTSLTFGQGTKVEIKR
modifications: SMCC-DM1 on primary amines, sites not stated
B14: NOV0705-SMCC-DM1 (antibody, human IgG1, lambda, V domains shown)
VH: QVQLVQSGAEVKKPGESLKISCKGSGYSFTNYWIGWVRQMPGKGLEWMGFIDPGVSYTRYSPSFQGQVTISADKSISTAYLQWSSLKASDTAMYYCARVLAHSTEYNWPAFWGQGTLVTVSS
VL: DIVLTQPPSVSGAPGQRVTISCSGSSSNIGLDYVNWYQQLPGTAPKLLIYRNKQRPSGVPDRFSGSKSGTSASLAITGLQAEDEADYYCQAWAGRTNYVVFGGGTKLTVLG
modifications: SMCC-DM1 on primary amines, sites not stated

Target: T1, human CDH6 on cells
Experiment: cell-based or functional assay

Binder | percent inhibition at 1.22 nM ADC, JHOS4 cells | percent inhibition at 1.22 nM ADC, KNS42 cells | percent inhibition at 1.22 nM ADC, NCIH661 cells | percent inhibition at 1.22 nM ADC, OVCAR3 cells | percent inhibition at 1.22 nM ADC, SNU8 cells
B1 | -27.9% | -18.6% | 5.14% | -30% | -15.6%
B2 | -6.22% | -17.3% | -9.74% | -3.55% | 7.79%
B3 | -14.7% | -14.7% | 2.08% | -20.6% | -0.1%
B4 | -23% | -12.3% | -6.14% | -16.2% | -10.9%
B5 | -14.4% | -9.23% | -10.5% | -1.5% | -2.56%
B6 | 4.5% | -4.2% | 5.91% | 46.9% | -7.7%
B7 | 51% | 56.8% | 14.6% | 84.8% | 18.4%
B8 | 62.3% | 57.3% | 14.8% | 88% | 15.7%
B9 | -11.9% | -6.82% | 3.9% | -10.3% | -1.42%
B10 | 33.9% | 23.8% | 16.4% | 61.8% | 10.8%
B11 | 58.1% | 15.2% | 25.9% | 85.7% | 35.6%
B12 | 3.63% | -3.11% | -0.53% | 7.21% | 10.3%
B13 | 66.9% | 66.3% | 18.7% | 89% | 21.6%
B14 | 40.4% | -13.3% | -3.15% | 68.6% | 6.4%

Reference: patent US20170224836A1 (Novartis, published 2017)
